Here are results for four proteins from patent publication US20090263395.

B1: A2282 protein, wild type (A2282V1, MELK), HA-tagged, immunoprecipitated from HEK 293 cells (protein)
chain: MKDYDELLKYYELHETIGTGGFAKVKLACHILTGEMVAIKIMDKNTLGSDLPRIKTEIEALKNLRHQHICQLYHVLETANKIFMVLEYCPGGELFDYIISQDRLSEEETRVVFRQIVSAVAYVHSQGYAHRDLKPENLLFDEYHKLKLIDFGLCAKPKGNKDYHLQTCCGSLAYAAPELIQGKSYLGSEADVWSMGILLYVLMCGFLPFDDDNVMALYKKIMRGKYDVPKWLSPSSILLLQQMLQVDPKKRISMKNLLNHPWIMQDYNYPVEWQSKNPFIHLDDDCVTELSVHHRNNRQTMEDLISLWQYDHLTATYLLLLAKKARGKPVRLRLSSFSCGQASATPFTDIKSNNWSLEDVTASDKNYVAGLIDYDWCEDDLSTGAATPRTSQFTKYWTESNGVESKSLTPALCRTPANKLKNKENVYTPKSAVKNEEYFMFPEPKTPVNKNQHKREILTTPNRYTTPSKARNQCLKETPIKIPVNSTGTDKLMTGVISPERRCRSVELDLNQAHMEETPKRKGAKVFGSLERGLDKVITVLTRSKRKGSARDGPRRLKLHYNVTTTRLVNPDQLLNEIMSILPKKHVDFVQKGYTLKCQTQSDFGKVTMQFELEVCQLQKPDVVGIRRQRLKGDAWVYKRLVEDILSSCKV
B2: A2282 protein T478A mutant, HA-tagged (protein)
chain: MKDYDELLKYYELHETIGTGGFAKVKLACHILTGEMVAIKIMDKNTLGSDLPRIKTEIEALKNLRHQHICQLYHVLETANKIFMVLEYCPGGELFDYIISQDRLSEEETRVVFRQIVSAVAYVHSQGYAHRDLKPENLLFDEYHKLKLIDFGLCAKPKGNKDYHLQTCCGSLAYAAPELIQGKSYLGSEADVWSMGILLYVLMCGFLPFDDDNVMALYKKIMRGKYDVPKWLSPSSILLLQQMLQVDPKKRISMKNLLNHPWIMQDYNYPVEWQSKNPFIHLDDDCVTELSVHHRNNRQTMEDLISLWQYDHLTATYLLLLAKKARGKPVRLRLSSFSCGQASATPFTDIKSNNWSLEDVTASDKNYVAGLIDYDWCEDDLSTGAATPRTSQFTKYWTESNGVESKSLTPALCRTPANKLKNKENVYTPKSAVKNEEYFMFPEPKTPVNKNQHKREILTTPNRYTTPSKARNQCLKEAPIKIPVNSTGTDKLMTGVISPERRCRSVELDLNQAHMEETPKRKGAKVFGSLERGLDKVITVLTRSKRKGSARDGPRRLKLHYNVTTTRLVNPDQLLNEIMSILPKKHVDFVQKGYTLKCQTQSDFGKVTMQFELEVCQLQKPDVVGIRRQRLKGDAWVYKRLVEDILSSCKV
B3: A2282 protein D150A mutant, HA-tagged (protein)
chain: MKDYDELLKYYELHETIGTGGFAKVKLACHILTGEMVAIKIMDKNTLGSDLPRIKTEIEALKNLRHQHICQLYHVLETANKIFMVLEYCPGGELFDYIISQDRLSEEETRVVFRQIVSAVAYVHSQGYAHRDLKPENLLFDEYHKLKLIAFGLCAKPKGNKDYHLQTCCGSLAYAAPELIQGKSYLGSEADVWSMGILLYVLMCGFLPFDDDNVMALYKKIMRGKYDVPKWLSPSSILLLQQMLQVDPKKRISMKNLLNHPWIMQDYNYPVEWQSKNPFIHLDDDCVTELSVHHRNNRQTMEDLISLWQYDHLTATYLLLLAKKARGKPVRLRLSSFSCGQASATPFTDIKSNNWSLEDVTASDKNYVAGLIDYDWCEDDLSTGAATPRTSQFTKYWTESNGVESKSLTPALCRTPANKLKNKENVYTPKSAVKNEEYFMFPEPKTPVNKNQHKREILTTPNRYTTPSKARNQCLKETPIKIPVNSTGTDKLMTGVISPERRCRSVELDLNQAHMEETPKRKGAKVFGSLERGLDKVITVLTRSKRKGSARDGPRRLKLHYNVTTTRLVNPDQLLNEIMSILPKKHVDFVQKGYTLKCQTQSDFGKVTMQFELEVCQLQKPDVVGIRRQRLKGDAWVYKRLVEDILSSCKV
B4: A2282 protein T167A mutant, HA-tagged (protein)
chain: MKDYDELLKYYELHETIGTGGFAKVKLACHILTGEMVAIKIMDKNTLGSDLPRIKTEIEALKNLRHQHICQLYHVLETANKIFMVLEYCPGGELFDYIISQDRLSEEETRVVFRQIVSAVAYVHSQGYAHRDLKPENLLFDEYHKLKLIDFGLCAKPKGNKDYHLQACCGSLAYAAPELIQGKSYLGSEADVWSMGILLYVLMCGFLPFDDDNVMALYKKIMRGKYDVPKWLSPSSILLLQQMLQVDPKKRISMKNLLNHPWIMQDYNYPVEWQSKNPFIHLDDDCVTELSVHHRNNRQTMEDLISLWQYDHLTATYLLLLAKKARGKPVRLRLSSFSCGQASATPFTDIKSNNWSLEDVTASDKNYVAGLIDYDWCEDDLSTGAATPRTSQFTKYWTESNGVESKSLTPALCRTPANKLKNKENVYTPKSAVKNEEYFMFPEPKTPVNKNQHKREILTTPNRYTTPSKARNQCLKETPIKIPVNSTGTDKLMTGVISPERRCRSVELDLNQAHMEETPKRKGAKVFGSLERGLDKVITVLTRSKRKGSARDGPRRLKLHYNVTTTRLVNPDQLLNEIMSILPKKHVDFVQKGYTLKCQTQSDFGKVTMQFELEVCQLQKPDVVGIRRQRLKGDAWVYKRLVEDILSSCKV

The target of this series is Histone H1 (UPSTATE, Lake Placid, N.Y.).
In the case of B1, the “kinase activity (immune complex kinase assay, [gamma-32P]-ATP)” value (shortened to “kinase activity”) is “wild type and T478A proteins possessing intact kinase domain was observed phosphorylated Histone H1 in vitro”.

As for B2, the “kinase activity” value was “wild type and T478A proteins possessing intact kinase domain was observed phosphorylated Histone H1 in vitro”.

In the case of B3, the “kinase activity” value is given as “completely abolished in D150A protein”.

Consider B4, for which the “kinase activity” value is “This activity was severely compromised in T167A mutant”.
